# Measured values taken from patent US20250197488A1 (MABWELL SHANGHAI BIOSCIENCE, published 2025).
# T1: human IL-11 (AAH12506.1, Pro22-Leu199) (human, UniProt P20809 22-199)
# T1 construct: The range Pro22-Leu199 counts on AAH12506.1; The Octet runs say only 'human IL-11'; also called hIL-11
# T1 chain: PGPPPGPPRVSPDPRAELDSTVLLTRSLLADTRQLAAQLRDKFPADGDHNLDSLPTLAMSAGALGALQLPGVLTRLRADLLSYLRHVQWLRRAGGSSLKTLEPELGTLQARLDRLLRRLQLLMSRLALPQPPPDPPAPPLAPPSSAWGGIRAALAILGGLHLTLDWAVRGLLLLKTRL
# T2: IL-11 (Cat. 12225-HNCE, Sino Biological Inc.) (UniProt P20809 22-199, limits assumed)
# T2 sequence (looked up): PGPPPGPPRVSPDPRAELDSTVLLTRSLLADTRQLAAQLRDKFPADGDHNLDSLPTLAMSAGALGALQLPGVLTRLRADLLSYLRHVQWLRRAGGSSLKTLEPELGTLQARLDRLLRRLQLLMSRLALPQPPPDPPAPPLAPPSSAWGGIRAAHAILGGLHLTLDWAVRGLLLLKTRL
# How the values were obtained:
# [1] = molecular target: T1, human IL-11 (AAH12506.1, Pro22-Leu199); experiment: BLI (Octet), antibody captured, human IL-11 in solution
# Method: The affinity of the murine antibodies purified from the hybridoma supernatants was determined using an Octet QKe System instrument from Fortebio Inc. with an anti-mouse IgG Fc Capture biosensor to capture the Fc fragments of the antibodies, for which an anti-IL-11 antibody named “3C6-mFc” recombinantly expressed was used at the same concentration as a positive control. Specifically, a hybridoma supernatant was diluted with HBS-EP+ buffer (GE), and was allowed to pass through the surface of AMC probes (Cat: 18-5088, PALL), and so the antibody in the hybridoma supernatant was captured on the surface of the probes; then, human IL-11 diluted in the HBS-EP+ buffer (300 nM) was used as a mobile phase to react with the antibody captured on the surface of the probes. Both the binding and the dissociating were conducted for 300 seconds. When the experiment was finished, data from which response values of blank controls had been deducted was fitted using a 1:1 Langmuir binding model by software, and then kinetic constants for antigen-antibody binding were calculated. Binding signals were detected on the Octet QKe System instrument with Hy5C2, Hy8C8, Hy16B5, Hy18A10, and Hy18H10.
# The affinity of hz18A10 and hz8C8 was determined according to the method provided in Example 1 using AHC bioprobes for capturing human Fc fragment instead, with other conditions unchanged. A recombinantly expressed anti-IL-11 antibody 3C6-hFc was used at the same concentration as a positive control.
# (§1) Then, light and heavy chain expression vectors for preparing mutant antibodies were constructed according to the method for preparing the recombinant antibodies provided in Example 4, using the mutant sequences shown in Table 3 which accordingly were linked with human IgG1 constant regions (SEQ ID NO. 13, and SEQ ID NO.14). Subsequently, the light chain and the heavy chain were reasonably matched and co-transfected into eukaryotic cells for transient expression, and then recombination protein samples of the mutant antibodies were obtained through affinity purification. The samples obtained were tested for affinity on Fortebio Octet, according to the method for measuring affinity provided in Example 1.
# [2] = molecular target: T2, IL-11 (Cat. 12225-HNCE, Sino Biological …); experiment: competition ELISA, IL-11/IL-11Rα/GP130 complex
# Method: The activity of the recombinant murine anti-IL-11 antibodies for blocking the formation of IL-11/IL-11Rα/GP130 complex was analyzed via competition ELISA. IL-11Rα-His (NP_004503.1, Met1-Val363, C-terminus-6-His Tag) was firstly added into ELISA plates to be coated overnight. Next day, samples were prepared as follows. […] After co-incubating and washing, an HRP conjugated anti-human Fc secondary antibody was added to develop the color which was then detected.
# as §1, with “1. Further, using the protocol provided in Example 3, hz8C8 and its affinity matured mutants were analyzed for their activity for blocking the formation of IL-11/IL-11Rα/GP130 complex.” for “1.”
# [3] = molecular target: T2, IL-11 (Cat. 12225-HNCE, Sino Biological …); experiment: cell-based or functional assay
Binder,Kd [1],koff [1],kon [1],IC50 [2],"Blocking activity (IC50), STAT3-luc reporter [3]"
"hz8C8-VHm1 + hz8C8-VLm4 (antibody, human IgG1, kappa, V domains shown, human IgG1 constant regions) VH: EVQLVESGGGLVQPGGSLRLSCAASGFTFSSFGMHWVRQAPGKGLEWVAYITPGSNTIYYADTVKGRFTISRDNAKNSLYLQMNSLRAEDTAVYYCAREYYSYDEGFAYWGQGTLVTVSS VL: EIVLTQSPATLSLSPGERATLSCSVSDLISSNYLHWYQQKPGQAPRLLIYRTSNLASGIPARFSGSGSGTDFTLTISSLEPEDFAVYYCQQGVDVPFTFGQGTKLEIKR",0.161 nM,0.000141 s⁻¹,874000 M⁻¹ s⁻¹,0.846 µg/mL,0.098 µg/mL
"hz8C8-VHm1 + hz8C8-VLm6 (antibody, human IgG1, kappa, V domains shown, human IgG1 constant regions) VH: EVQLVESGGGLVQPGGSLRLSCAASGFTFSSFGMHWVRQAPGKGLEWVAYITPGSNTIYYADTVKGRFTISRDNAKNSLYLQMNSLRAEDTAVYYCAREYYSYDEGFAYWGQGTLVTVSS VL: EIVLTQSPATLSLSPGERATLSCSVSSLIPSKYLHWYQQKPGQAPRLLIYRTSNLASGIPARFSGSGSGTDFTLTISSLEPEDFAVYYCQQGVDVPFTFGQGTKLEIKR",0.0412 nM,2.23e-05 s⁻¹,543000 M⁻¹ s⁻¹,1.01 µg/mL,0.076 µg/mL
"hz8C8-VHm1 + hz8C8-VLm7 (antibody, human IgG1, kappa, V domains shown, human IgG1 constant regions; also called hz8C8m7) VH: EVQLVESGGGLVQPGGSLRLSCAASGFTFSSFGMHWVRQAPGKGLEWVAYITPGSNTIYYADTVKGRFTISRDNAKNSLYLQMNSLRAEDTAVYYCAREYYSYDEGFAYWGQGTLVTVSS VL: EIVLTQSPATLSLSPGERATLSCSVSDLIPSQYLHWYQQKPGQAPRLLIYRTSNLASGIPARFSGSGSGTDFTLTISSLEPEDFAVYYCQQGVDVPFTFGQGTKLEIKR",0.00429 nM,3.52e-06 s⁻¹,822000 M⁻¹ s⁻¹,0.85 µg/mL,0.017 µg/mL
"hz8C8-VHm1 + hz8C8-VLm5 (antibody, human IgG1, kappa, V domains shown, human IgG1 constant regions) VH: EVQLVESGGGLVQPGGSLRLSCAASGFTFSSFGMHWVRQAPGKGLEWVAYITPGSNTIYYADTVKGRFTISRDNAKNSLYLQMNSLRAEDTAVYYCAREYYSYDEGFAYWGQGTLVTVSS VL: EIVLTQSPATLSLSPGERATLSCSVSELLSTNYLHWYQQKPGQAPRLLIYRTSNLASGIPARFSGSGSGTDFTLTISSLEPEDFAVYYCQQGVDVPFTFGQGTKLEIKR",0.479 nM,0.000406 s⁻¹,848000 M⁻¹ s⁻¹,0.838 µg/mL,0.1 µg/mL

# The next lines start with the values.
Kd [1],koff [1],kon [1],IC50 [2],"Blocking activity (IC50), STAT3-luc reporter [3]",Binder
0.0347 nM,3.7e-05 s⁻¹,1.07e+06 M⁻¹ s⁻¹,0.74 µg/mL,0.024 µg/mL,"hz8C8-VHm1 + hz8C8-VLm7-m2 (antibody, human IgG1, kappa, V domains shown, human IgG1 constant regions) VH: EVQLVESGGGLVQPGGSLRLSCAASGFTFSSFGMHWVRQAPGKGLEWVAYITPGSNTIYYADTVKGRFTISRDNAKNSLYLQMNSLRAEDTAVYYCAREYYSYDEGFAYWGQGTLVTVSS VL: EIVLTQSPATLSLSPGERATLSCSVSDLIPSQYLHWYQQKPGQAPRLLIYDASNLASGIPARFSGSGSGTDFTLTISSLEPEDFAVYYCQQGVDVPFTFGQGTKLEIKR"
0.0795 nM,8.99e-05 s⁻¹,1.13e+06 M⁻¹ s⁻¹,0.73 µg/mL,0.017 µg/mL,"hz8C8-VHm1 + hz8C8-VLm7-m3 (antibody, human IgG1, kappa, V domains shown, human IgG1 constant regions) VH: EVQLVESGGGLVQPGGSLRLSCAASGFTFSSFGMHWVRQAPGKGLEWVAYITPGSNTIYYADTVKGRFTISRDNAKNSLYLQMNSLRAEDTAVYYCAREYYSYDEGFAYWGQGTLVTVSS VL: EIVLTQSPATLSLSPGERATLSCSVSDLIPSQYLHWYQQKPGQAPRLLIYGASNLASGIPARFSGSGSGTDFTLTISSLEPEDFAVYYCQQGVDVPFTFGQGTKLEIKR"
0.13 nM,0.000136 s⁻¹,1.05e+06 M⁻¹ s⁻¹,0.58 µg/mL,0.068 µg/mL,"hz8C8-VHm1 + hz8C8-VLm7-m1 (antibody, human IgG1, kappa, V domains shown, human IgG1 constant regions) VH: EVQLVESGGGLVQPGGSLRLSCAASGFTFSSFGMHWVRQAPGKGLEWVAYITPGSNTIYYADTVKGRFTISRDNAKNSLYLQMNSLRAEDTAVYYCAREYYSYDEGFAYWGQGTLVTVSS VL: EIVLTQSPATLSLSPGERATLSCSVSDLIPSQYLHWYQQKPGQAPRLLIYRASNLASGIPARFSGSGSGTDFTLTISSLEPEDFAVYYCQQGVDVPFTFGQGTKLEIKR"
